Source: publication PMC3621117 (The FEBS journal, 2013)

Biological target: the molecule itself
Assay: SEC

B1: wild-type ExsD (natural protein)
chain: VVGSDARSRGRVPGYASSSLYRESGIISARQLALLQRMLPRLRLEQLFRCEWLQQRLARGLALGREEVRQILLCAAQDDDGWCSELGDRVNLAVPQSMIDWVLLPVYGWWESLLDQAIPGWRLSLVELETQSRQLRVKSEFWSRVAELEPEQAREELARVAKCQARTQEQVAELAGKLETASALAKSAWPNWQRGMATLLASGGLAGFEPIPEVLECLWQPLCRLDDDVGAADAVQAWLHERNLCQAQDHFYWQS
With B1 the “stoichiometry N” value was 3.
